Measurements reported in patent US20230365662A1.
Where “and” joins values, the source holds several entries; their conditions need not be identical. Equal values may be shown once.

B1: KB001 mouse Fab FASEBA VH S65T (Fab, V domains shown)
VH: EVQLKQSGPGLVAPSQSLSITCTVSGFSLSIYSVHWVRQPPGKGLEWLGMIWGGGSSDYNSALKTRLSISKDNSKSQVFLKMNSLQTDDTAMYYCARNGNFYAMDYWGQGTSVTVSS
VL: QIVLTQSPAIMSASLGERVTMTCTASSSVSSSFLHWYQQKPGSSPQLWIYSTSNLASGVPARFSGSGSGTSYSLTISSMEAEDAATYYCHQYHHSPYIYTFGGGTKLEIK
B2: KB001 mouse Fab FASEBA VH S65V (Fab, V domains shown)
VH: EVQLKQSGPGLVAPSQSLSITCTVSGFSLSIYSVHWVRQPPGKGLEWLGMIWGGGSSDYNSALKVRLSISKDNSKSQVFLKMNSLQTDDTAMYYCARNGNFYAMDYWGQGTSVTVSS
VL: QIVLTQSPAIMSASLGERVTMTCTASSSVSSSFLHWYQQKPGSSPQLWIYSTSNLASGVPARFSGSGSGTSYSLTISSMEAEDAATYYCHQYHHSPYIYTFGGGTKLEIK
B3: KB001 mouse Fab FASEBA VH Y106I (Fab, V domains shown)
VH: EVQLKQSGPGLVAPSQSLSITCTVSGFSLSIYSVHWVRQPPGKGLEWLGMIWGGGSSDYNSALKSRLSISKDNSKSQVFLKMNSLQTDDTAMYYCARNGNFYAMDIWGQGTSVTVSS
VL: QIVLTQSPAIMSASLGERVTMTCTASSSVSSSFLHWYQQKPGSSPQLWIYSTSNLASGVPARFSGSGSGTSYSLTISSMEAEDAATYYCHQYHHSPYIYTFGGGTKLEIK
B4: KB001 mouse Fab FASEBA VH Y106L (Fab, V domains shown)
VH: EVQLKQSGPGLVAPSQSLSITCTVSGFSLSIYSVHWVRQPPGKGLEWLGMIWGGGSSDYNSALKSRLSISKDNSKSQVFLKMNSLQTDDTAMYYCARNGNFYAMDLWGQGTSVTVSS
VL: QIVLTQSPAIMSASLGERVTMTCTASSSVSSSFLHWYQQKPGSSPQLWIYSTSNLASGVPARFSGSGSGTSYSLTISSMEAEDAATYYCHQYHHSPYIYTFGGGTKLEIK
B5: KB001 mouse Fab FASEBA VH G99S (Fab, V domains shown)
VH: EVQLKQSGPGLVAPSQSLSITCTVSGFSLSIYSVHWVRQPPGKGLEWLGMIWGGGSSDYNSALKSRLSISKDNSKSQVFLKMNSLQTDDTAMYYCARNSNFYAMDYWGQGTSVTVSS
VL: QIVLTQSPAIMSASLGERVTMTCTASSSVSSSFLHWYQQKPGSSPQLWIYSTSNLASGVPARFSGSGSGTSYSLTISSMEAEDAATYYCHQYHHSPYIYTFGGGTKLEIK
B6: KB001 mouse Fab FASEBA VH Y106V (Fab, V domains shown)
VH: EVQLKQSGPGLVAPSQSLSITCTVSGFSLSIYSVHWVRQPPGKGLEWLGMIWGGGSSDYNSALKSRLSISKDNSKSQVFLKMNSLQTDDTAMYYCARNGNFYAMDVWGQGTSVTVSS
VL: QIVLTQSPAIMSASLGERVTMTCTASSSVSSSFLHWYQQKPGSSPQLWIYSTSNLASGVPARFSGSGSGTSYSLTISSMEAEDAATYYCHQYHHSPYIYTFGGGTKLEIK
B7: KB001 mouse Fab FASEBA VH A103S (Fab, V domains shown)
VH: EVQLKQSGPGLVAPSQSLSITCTVSGFSLSIYSVHWVRQPPGKGLEWLGMIWGGGSSDYNSALKSRLSISKDNSKSQVFLKMNSLQTDDTAMYYCARNGNFYSMDYWGQGTSVTVSS
VL: QIVLTQSPAIMSASLGERVTMTCTASSSVSSSFLHWYQQKPGSSPQLWIYSTSNLASGVPARFSGSGSGTSYSLTISSMEAEDAATYYCHQYHHSPYIYTFGGGTKLEIK
B8: KB001 mouse Fab FASEBA VH Y106A (Fab, V domains shown)
VH: EVQLKQSGPGLVAPSQSLSITCTVSGFSLSIYSVHWVRQPPGKGLEWLGMIWGGGSSDYNSALKSRLSISKDNSKSQVFLKMNSLQTDDTAMYYCARNGNFYAMDAWGQGTSVTVSS
VL: QIVLTQSPAIMSASLGERVTMTCTASSSVSSSFLHWYQQKPGSSPQLWIYSTSNLASGVPARFSGSGSGTSYSLTISSMEAEDAATYYCHQYHHSPYIYTFGGGTKLEIK
B9: KB001 mouse Fab FASEBA VH G99Y (Fab, V domains shown)
VH: EVQLKQSGPGLVAPSQSLSITCTVSGFSLSIYSVHWVRQPPGKGLEWLGMIWGGGSSDYNSALKSRLSISKDNSKSQVFLKMNSLQTDDTAMYYCARNYNFYAMDYWGQGTSVTVSS
VL: QIVLTQSPAIMSASLGERVTMTCTASSSVSSSFLHWYQQKPGSSPQLWIYSTSNLASGVPARFSGSGSGTSYSLTISSMEAEDAATYYCHQYHHSPYIYTFGGGTKLEIK
B10: KB001 mouse Fab FASEBA VH Y106M (Fab, V domains shown)
VH: EVQLKQSGPGLVAPSQSLSITCTVSGFSLSIYSVHWVRQPPGKGLEWLGMIWGGGSSDYNSALKSRLSISKDNSKSQVFLKMNSLQTDDTAMYYCARNGNFYAMDMWGQGTSVTVSS
VL: QIVLTQSPAIMSASLGERVTMTCTASSSVSSSFLHWYQQKPGSSPQLWIYSTSNLASGVPARFSGSGSGTSYSLTISSMEAEDAATYYCHQYHHSPYIYTFGGGTKLEIK
B11: KB001 mouse Fab FASEBA VH S65D (Fab, V domains shown)
VH: EVQLKQSGPGLVAPSQSLSITCTVSGFSLSIYSVHWVRQPPGKGLEWLGMIWGGGSSDYNSALKDRLSISKDNSKSQVFLKMNSLQTDDTAMYYCARNGNFYAMDYWGQGTSVTVSS
VL: QIVLTQSPAIMSASLGERVTMTCTASSSVSSSFLHWYQQKPGSSPQLWIYSTSNLASGVPARFSGSGSGTSYSLTISSMEAEDAATYYCHQYHHSPYIYTFGGGTKLEIK
B12: KB001 mouse Fab FASEBA VH Y106F (Fab, V domains shown)
VH: EVQLKQSGPGLVAPSQSLSITCTVSGFSLSIYSVHWVRQPPGKGLEWLGMIWGGGSSDYNSALKSRLSISKDNSKSQVFLKMNSLQTDDTAMYYCARNGNFYAMDFWGQGTSVTVSS
VL: QIVLTQSPAIMSASLGERVTMTCTASSSVSSSFLHWYQQKPGSSPQLWIYSTSNLASGVPARFSGSGSGTSYSLTISSMEAEDAATYYCHQYHHSPYIYTFGGGTKLEIK
B13: KB001 mouse Fab FASEBA VH N100E (Fab, V domains shown)
VH: EVQLKQSGPGLVAPSQSLSITCTVSGFSLSIYSVHWVRQPPGKGLEWLGMIWGGGSSDYNSALKSRLSISKDNSKSQVFLKMNSLQTDDTAMYYCARNGEFYAMDYWGQGTSVTVSS
VL: QIVLTQSPAIMSASLGERVTMTCTASSSVSSSFLHWYQQKPGSSPQLWIYSTSNLASGVPARFSGSGSGTSYSLTISSMEAEDAATYYCHQYHHSPYIYTFGGGTKLEIK
B14: KB001 mouse Fab FASEBA VH Y106T (Fab, V domains shown)
VH: EVQLKQSGPGLVAPSQSLSITCTVSGFSLSIYSVHWVRQPPGKGLEWLGMIWGGGSSDYNSALKSRLSISKDNSKSQVFLKMNSLQTDDTAMYYCARNGNFYAMDTWGQGTSVTVSS
VL: QIVLTQSPAIMSASLGERVTMTCTASSSVSSSFLHWYQQKPGSSPQLWIYSTSNLASGVPARFSGSGSGTSYSLTISSMEAEDAATYYCHQYHHSPYIYTFGGGTKLEIK
B15: KB001 mouse Fab FASEBA VH Y106R (Fab, V domains shown)
VH: EVQLKQSGPGLVAPSQSLSITCTVSGFSLSIYSVHWVRQPPGKGLEWLGMIWGGGSSDYNSALKSRLSISKDNSKSQVFLKMNSLQTDDTAMYYCARNGNFYAMDRWGQGTSVTVSS
VL: QIVLTQSPAIMSASLGERVTMTCTASSSVSSSFLHWYQQKPGSSPQLWIYSTSNLASGVPARFSGSGSGTSYSLTISSMEAEDAATYYCHQYHHSPYIYTFGGGTKLEIK

Target: HRgpA-6H (Porphyromonas gingivalis) (UniProt P28784)
Assay: ELISA on coated HRgpA-6H

UniProt P28784, sequence (P28784 228-991 limits assumed): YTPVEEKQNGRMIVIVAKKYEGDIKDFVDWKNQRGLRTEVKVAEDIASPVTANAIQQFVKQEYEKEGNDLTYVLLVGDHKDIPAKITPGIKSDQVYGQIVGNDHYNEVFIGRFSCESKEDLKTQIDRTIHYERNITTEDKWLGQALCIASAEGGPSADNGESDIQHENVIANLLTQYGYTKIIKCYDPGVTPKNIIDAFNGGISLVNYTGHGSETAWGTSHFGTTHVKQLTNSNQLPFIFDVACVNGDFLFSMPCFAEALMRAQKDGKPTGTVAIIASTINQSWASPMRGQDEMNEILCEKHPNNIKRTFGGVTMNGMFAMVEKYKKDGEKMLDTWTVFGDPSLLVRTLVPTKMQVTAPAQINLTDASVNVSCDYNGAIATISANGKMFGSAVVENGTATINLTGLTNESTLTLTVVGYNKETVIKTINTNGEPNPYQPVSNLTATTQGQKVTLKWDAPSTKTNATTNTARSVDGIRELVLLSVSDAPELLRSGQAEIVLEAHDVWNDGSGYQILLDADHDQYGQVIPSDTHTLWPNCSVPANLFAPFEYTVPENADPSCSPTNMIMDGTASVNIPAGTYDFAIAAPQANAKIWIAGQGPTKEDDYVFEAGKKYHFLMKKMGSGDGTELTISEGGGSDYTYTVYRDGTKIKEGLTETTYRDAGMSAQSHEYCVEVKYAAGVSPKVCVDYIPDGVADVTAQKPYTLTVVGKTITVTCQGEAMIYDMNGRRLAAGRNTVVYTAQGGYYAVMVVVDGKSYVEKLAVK

Binder	OD450nm	Ratio OD(Variant)/OD(WT)
B1	0.883	1.07
B2	0.867	1.05
B3	0.803	1.04
B4	0.791	1.03
B5	0.809	1.01
B6	0.795 and 0.84 and 0.802	1.03 and 1.09 and 1.04
B7	0.909	1.05
B8	0.821 and 0.835	1.07 and 1.09
B9	0.835	1.05
B10	0.794 and 0.84	1.03 and 1.09
B11	0.866 and 0.897	1.05 and 1.08
B12	0.815 and 0.856	1.06 and 1.11
B13	0.886	1.05
B14	0.827	1.07
B15	0.793	1.03
